tested on: Escherichia coli TOP10; experiment: shrunken log2 fold change of peptide-encoding DNA abundance (4.5 h post-induction vs induction); higher = less antimicrobial activity (less host growth inhibition); conditions: time post-induction: 4.5 h; library: site-saturation at positions 5, 18, 19, 20
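Further: peptides expressed intracellularly from a pBAD plasmid library in pooled LB shake-flask culture, induced with 0.3% L-arabinose, DNA abundance read by NGS, three biological replicates, DESeq2 with apeglm shrinkage.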

Row | Sequence | shrunken log2 fold change
1 | RRIRWRPPRLPRPRPRPWFLPRP | -0.617
2 | RRIRSRPPRLPRPRPRPSWVPRP | 0.0183
3 | RRIRSRPPRLPRPRPRPIIAPRP | -0.0683
4 | RRIRQRPPRLPRPRPRPMCGPRP | 0.31
5 | RRIRYRPPRLPRPRPRPDKDPRP | -0.151
6 | RRIRVRPPRLPRPRPRPIFQPRP | -0.052
7 | RRIRFRPPRLPRPRPRPLWMPRP | -0.0523
8 | RRIRNRPPRLPRPRPRPVCFPRP | -0.162
9 | RRIRWRPPRLPRPRPRPCNTPRP | -0.169
10 | RRIRIRPPRLPRPRPRPLRYPRP | -0.409
11 | RRIRMRPPRLPRPRPRPQAVPRP | 0.442
12 | RRIRLRPPRLPRPRPRPYYHPRP | -0.712
13 | RRIRARPPRLPRPRPRPTSPPRP | 0.292
14 | RRIRNRPPRLPRPRPRPQFRPRP | 0.00019
15 | RRIRHRPPRLPRPRPRPPAGPRP | 0.344
16 | RRIRWRPPRLPRPRPRPSHGPRP | -0.583
17 | RRIRQRPPRLPRPRPRPCMIPRP | -0.0196
18 | RRIRERPPRLPRPRPRPITEPRP | -0.159
19 | RRIRVRPPRLPRPRPRPKVAPRP | 0.12
20 | RRIRCRPPRLPRPRPRPYGTPRP | 0.016
21 | RRIRHRPPRLPRPRPRPDWYPRP | -0.061
22 | RRIRCRPPRLPRPRPRPIHFPRP | -0.368
23 | RRIRSRPPRLPRPRPRPLFHPRP | -0.63
24 | RRIRLRPPRLPRPRPRPNKMPRP | -0.158
25 | RRIRTRPPRLPRPRPRPKYDPRP | -0.434

Row | Sequence | shrunken log2 fold change
26 | RRIRNRPPRLPRPRPRPDKFPRP | -0.188
27 | RRIRHRPPRLPRPRPRPMNIPRP | -0.214
28 | RRIRSRPPRLPRPRPRPQFIPRP | -1.79
29 | RRIRLRPPRLPRPRPRPLHNPRP | -0.0106
30 | RRIRRRPPRLPRPRPRPLQVPRP | 0.000182
31 | RRIRMRPPRLPRPRPRPMKQPRP | 0.0424
32 | RRIRNRPPRLPRPRPRPIYWPRP | 0.0553
33 | RRIRCRPPRLPRPRPRPFDNPRP | -0.437
34 | RRIRARPPRLPRPRPRPYNMPRP | -0.809
35 | RRIRSRPPRLPRPRPRPHLNPRP | -0.158
36 | RRIRFRPPRLPRPRPRPRRDPRP | 0.798
37 | RRIRCRPPRLPRPRPRPNARPRP | 0.00577
38 | RRIRERPPRLPRPRPRPKVAPRP | 0.0804
39 | RRIRIRPPRLPRPRPRPAVYPRP | -0.825
40 | RRIRIRPPRLPRPRPRPMNFPRP | -0.0453
41 | RRIRWRPPRLPRPRPRPEKLPRP | 0.225
42 | RRIRPRPPRLPRPRPRPNKHPRP | -0.374
43 | RRIRERPPRLPRPRPRPCGVPRP | 0.0484
44 | RRIRMRPPRLPRPRPRPGFMPRP | 0.0795
45 | RRIRFRPPRLPRPRPRPCEVPRP | -0.0179
46 | RRIRYRPPRLPRPRPRPDAVPRP | -0.365
47 | RRIRWRPPRLPRPRPRPRSRPRP | 0.385
48 | RRIRIRPPRLPRPRPRPTMCPRP | -0.386
49 | RRIRFRPPRLPRPRPRPVYEPRP | -0.66
50 | RRIRQRPPRLPRPRPRPCDWPRP | 0.202

Row | Sequence | shrunken log2 fold change
51 | RRIRERPPRLPRPRPRPTHDPRP | -0.141
52 | RRIRCRPPRLPRPRPRPCLLPRP | -1.45
53 | RRIRERPPRLPRPRPRPRSFPRP | -0.331
54 | RRIRFRPPRLPRPRPRPRGIPRP | -0.123
55 | RRIRWRPPRLPRPRPRPVFKPRP | 0.0598
56 | RRIRTRPPRLPRPRPRPPWAPRP | 0.613
57 | RRIRDRPPRLPRPRPRPVLEPRP | 0.627
58 | RRIRPRPPRLPRPRPRPMMRPRP | 0.224
59 | RRIRVRPPRLPRPRPRPSSKPRP | -0.0737
60 | RRIRARPPRLPRPRPRPRQLPRP | 0.449
61 | RRIRGRPPRLPRPRPRPSMSPRP | 0.453
62 | RRIRSRPPRLPRPRPRPRQTPRP | 0.0651
63 | RRIRNRPPRLPRPRPRPRHWPRP | 0.133
64 | RRIRTRPPRLPRPRPRPTHIPRP | -0.308
65 | RRIRTRPPRLPRPRPRPDTIPRP | -0.0386
66 | RRIRVRPPRLPRPRPRPELEPRP | 0.292
67 | RRIRRRPPRLPRPRPRPLAMPRP | -0.0111
68 | RRIRARPPRLPRPRPRPPAWPRP | 0.621
69 | RRIRTRPPRLPRPRPRPFNGPRP | -0.142
70 | RRIRVRPPRLPRPRPRPVMIPRP | -0.183
71 | RRIRVRPPRLPRPRPRPNQTPRP | -0.0286
72 | RRIRVRPPRLPRPRPRPFYNPRP | -0.565
73 | RRIRDRPPRLPRPRPRPNIVPRP | -0.0381
74 | RRIRQRPPRLPRPRPRPNFHPRP | -0.232
75 | RRIRLRPPRLPRPRPRPFNKPRP | -0.324

Row | Sequence | shrunken log2 fold change
76 | RRIRWRPPRLPRPRPRPYTVPRP | -0.29
77 | RRIRCRPPRLPRPRPRPPCFPRP | 0.197
78 | RRIRARPPRLPRPRPRPNRQPRP | 0.257
79 | RRIRCRPPRLPRPRPRPNKNPRP | -0.344
80 | RRIRPRPPRLPRPRPRPDLYPRP | -0.153
81 | RRIRHRPPRLPRPRPRPLSAPRP | 0.242
82 | RRIRMRPPRLPRPRPRPLPVPRP | 0.872
83 | RRIRIRPPRLPRPRPRPGMDPRP | -0.295
84 | RRIRYRPPRLPRPRPRPTMSPRP | -0.0772
85 | RRIRPRPPRLPRPRPRPSPNPRP | 1.14
86 | RRIRFRPPRLPRPRPRPWHEPRP | -0.00448
87 | RRIRLRPPRLPRPRPRPESEPRP | -0.000997
88 | RRIRSRPPRLPRPRPRPLHVPRP | -0.245
89 | RRIRPRPPRLPRPRPRPMLCPRP | 0.122
90 | RRIRPRPPRLPRPRPRPVKGPRP | 0.203
91 | RRIRGRPPRLPRPRPRPEKQPRP | 0.034
92 | RRIRVRPPRLPRPRPRPDTPPRP | -0.0915
93 | RRIRWRPPRLPRPRPRPANEPRP | 0.134
94 | RRIRLRPPRLPRPRPRPHGRPRP | 0.114
95 | RRIRMRPPRLPRPRPRPADHPRP | 0.173
96 | RRIRHRPPRLPRPRPRPTPCPRP | 0.00473
97 | RRIRTRPPRLPRPRPRPIVFPRP | -0.218
98 | RRIRQRPPRLPRPRPRPPLMPRP | 0.179
99 | RRIRPRPPRLPRPRPRPHEDPRP | -0.0757
100 | RRIRHRPPRLPRPRPRPKKHPRP | -0.324

Row | Sequence | shrunken log2 fold change
101 | RRIRQRPPRLPRPRPRPCWSPRP | -0.08
102 | RRIRQRPPRLPRPRPRPAGWPRP | 0.808
103 | RRIRMRPPRLPRPRPRPFLAPRP | 0.0298
104 | RRIRKRPPRLPRPRPRPGSLPRP | -0.0469
105 | RRIRIRPPRLPRPRPRPMWGPRP | -0.196
106 | RRIRARPPRLPRPRPRPRHYPRP | -0.158
107 | RRIRSRPPRLPRPRPRPEMLPRP | 0.536
108 | RRIRSRPPRLPRPRPRPDYKPRP | -0.722
109 | RRIRERPPRLPRPRPRPSPVPRP | -0.268
110 | RRIRYRPPRLPRPRPRPTVLPRP | 0.00488
111 | RRIRHRPPRLPRPRPRPRMKPRP | -0.223
112 | RRIRDRPPRLPRPRPRPSKKPRP | -0.217
113 | RRIRTRPPRLPRPRPRPQIGPRP | -0.0138
114 | RRIRQRPPRLPRPRPRPMVMPRP | 0.0852
115 | RRIRERPPRLPRPRPRPHHEPRP | -0.191
116 | RRIRWRPPRLPRPRPRPMAYPRP | -0.0846
117 | RRIRQRPPRLPRPRPRPGSQPRP | -0.161
118 | RRIRYRPPRLPRPRPRPKGGPRP | 0.0198
119 | RRIRDRPPRLPRPRPRPSAHPRP | 0.127
120 | RRIRHRPPRLPRPRPRPIRVPRP | -0.361
121 | RRIRTRPPRLPRPRPRPPVSPRP | 0.147
122 | RRIRGRPPRLPRPRPRPPPLPRP | 1.16
123 | RRIRDRPPRLPRPRPRPWEPPRP | -1.35
124 | RRIRIRPPRLPRPRPRPPDHPRP | -0.134
125 | RRIRTRPPRLPRPRPRPRWQPRP | 0.47

Row | Sequence | shrunken log2 fold change
126 | RRIRERPPRLPRPRPRPADFPRP | 0.0432
127 | RRIRHRPPRLPRPRPRPIVKPRP | -0.19
128 | RRIRARPPRLPRPRPRPFDAPRP | 0.116
129 | RRIRDRPPRLPRPRPRPLWEPRP | 0.0751
130 | RRIRMRPPRLPRPRPRPEMPPRP | 0.791
131 | RRIRCRPPRLPRPRPRPGLAPRP | 0.544
132 | RRIRERPPRLPRPRPRPAPDPRP | 0.26
133 | RRIRHRPPRLPRPRPRPCRAPRP | 0.0188
134 | RRIRFRPPRLPRPRPRPKNKPRP | -0.384
135 | RRIRQRPPRLPRPRPRPLPPPRP | 1.09
136 | RRIRDRPPRLPRPRPRPDLKPRP | 0.169
137 | RRIRNRPPRLPRPRPRPIFMPRP | -0.116
138 | RRIRGRPPRLPRPRPRPNTYPRP | 0.106
139 | RRIRGRPPRLPRPRPRPSSLPRP | -0.252
140 | RRIRKRPPRLPRPRPRPIHKPRP | -0.211
141 | RRIRFRPPRLPRPRPRPQEVPRP | 0.0758
142 | RRIRGRPPRLPRPRPRPFEQPRP | 0.618
143 | RRIRNRPPRLPRPRPRPVCCPRP | -0.146
144 | RRIRNRPPRLPRPRPRPPGVPRP | 0.653
145 | RRIRMRPPRLPRPRPRPAYPPRP | 0.0222
146 | RRIRARPPRLPRPRPRPIATPRP | 1.21
147 | RRIRSRPPRLPRPRPRPNGQPRP | 0.0535
148 | RRIRNRPPRLPRPRPRPWIMPRP | -1.05
149 | RRIRARPPRLPRPRPRPCHEPRP | -0.055
150 | RRIRPRPPRLPRPRPRPVNHPRP | -0.277

Reference: the supplement of paper PMC9112550, “Optimization of the antimicrobial peptide Bac7 by deep mutational scanning” (BMC Biology, 2022)
